For test [1], the target named is HLA-C*07:02/A*02:01 chimera of Example 2 (heavy chain with human β2m) (human).
Test [2] deals with HLA-C*07:02-A*02:01 chimera of Example 4 (heavy chain with human β2m) (human).

Turning to RYRPGTVAL (modifications not checked) [RYR peptide (…)], the Tm in test [1] worked out at 48.3 °C; in test [2] it was 49.8 °C.
